In publication PMC11906750 one finds FRET efficiency data, which are given here for four molecules.

Experiment in all cases: FRET or BRET
A general note: In BRET a luciferase serves as donor, and the signal depends on an acceptor being close.

For assay [1], the target named is HC-Pro^Tu-K-CFP (turnip mosaic virus).
Assay [2] addresses HC-Pro^Tu-CFP (turnip mosaic virus).
The target in assay [3] is HC-Pro^Tu-K-CFP (turnip mosaic virus). The source holds these as a separate data set.
In assay [4] the target is HC-Pro^Tu-CFP (turnip mosaic virus). The source holds these as a separate data set.

Read-outs that look alike come from different tables or passages of the source.

On to HC-Pro^Tu-K-CFP (natural protein), for which the FRET efficiency in assay [1] was found to be 72%.

Consider HC-Pro^Tu-CFP (natural protein), for which the FRET efficiency in assay [2] is 70%.

B1: YFP-ATG8a (natural protein)
chain: MAKSSFKISNPLEARMSESSRIREKYPDRIPVIVEKAGQSDVPDIDKKKYLVPADLTVGQFVYVVRKRIKLGAEKAIFVFVKNTLPPTAALMSAIYEEHKDEDGFLYMTYSGENTFG
With B1, the FRET efficiency in assay [3] and in assay [4] was 30% throughout.

B2: YFP-HEN1 (enzyme)
chain: MAGGGKHTPTPKAIIHQKFGAKASYTVEEVHDSSQSGCLGLAIPQKGPCLYRCHLQLPEFSVVSNVFKKKKDSEQSAAELALDKLGIRPQNDDLTVDEARDEIVGRIKYIFSDEFLSAEHPLGAHLRAALRRDGERCGSVPVSVIATVDAKINSRCKIINPSVESDPFLAISYVMKAAAKLADYIVASPHGLRRKNAYPSEIVEALATHVSDSLHSREVAAVYIPCIDEEVVELDTLYISSNRHYLDSIAERLGLKDGNQVMISRMFGKASCGSECRLYSEIPKKYLDNSSDASGTSNEDSSHIVKSRNARASYICGQDIHGDAILASVGYRWKSDDLDYDDVTVNSFYRICCGMSPNGIYKISRQAVIAAQLPFAFTTKSNWRGPLPREILGLFCHQHRLAEPILSSSTAPVKSLSDIFRSHKKLKVSGVDDANENLSRQKEDTPGLGHGFRCEVKIFTKSQDLVLECSPRKFYEKENDAIQNASLKALLWFSKFFADLDVDGEQSCDTDDDQDTKSSSPNVFAAPPILQKEHSSESKNTNVLSAEKRVQSITNGSVVSICYSLSLAVDPEYSSDGESPREDNESNEEMESEYSANCESSVELIESNEEIEFEVGTGSMNPHIESEVTQMTVGEYASFRMTPPDAAEALILAVGSDTVRIRSLLSERPCLNYNILLLGVKGPSEERMEAAFFKPPLSKQRVEYALKHIRESSASTLVDFGCGSGSLLDSLLDYPTSLQTIIGVDISPKGLARAAKMLHVKLNKEACNVKSATLYDGSILEFDSRLHDVDIGTCLEVIEHMEEDQACEFGEKVLSLFHPKLLIVSTPNYEFNTILQRSTPETQEENNSEPQLPKFRNHDHKFEWTREQFNQWASKLGKRHNYSVEFSGVGGSGEVEPGFASQIAIFRREASSVENVAESSMQPYKVIWEWKKEDVEKKKTDL
B2: in assay [4], the FRET efficiency worked out at 55%.
